Measurements reported in paper PMC3411838.
Positions count from the first letter of the chain named. Numbers in names are those of the source.

B1: full-length BCL10 E50A (pEGFP-C1) (natural protein)
chain: MEAPAPSLTEEDLTEVKKDALENLRVYLCEKIIAERHFDHLRAKKILSRADTEEISCRTSSRKRAGKLLDYLQENPRGLDTLVESIRREKTQSFLIQKITDEVLKLRNIKLEHLKGLKCSSCEPFAAGATNNLSRCNSDESNLSEKQRASTVMYHPEGESSTAPFFSMASSLNLPVLEVGRTENSSFSSATLPRPGDPGAPPLPPDLRLEEGGSCGNSSEMFLPLRSRALSRQ
B2: full-length BCL10 E54A (pEGFP-C1) (natural protein)
chain: B1 chain with A50E, E54A
B3: full-length BCL10 E53A (pEGFP-C1) (natural protein)
chain: B1 chain with A50E, E53A

target: T1, Myc-tagged CARMA1-CARD (wild type) (mouse) (UniProt Q8CIS0)
T1 sequence: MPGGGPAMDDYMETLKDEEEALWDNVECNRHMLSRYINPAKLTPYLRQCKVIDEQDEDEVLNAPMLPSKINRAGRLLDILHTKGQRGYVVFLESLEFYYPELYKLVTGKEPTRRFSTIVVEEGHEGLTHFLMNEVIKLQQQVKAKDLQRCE

NF-κB activation-dependent dual luciferase reporter in HEK293T, full-length BCL10 mutant against wild type (CARMA1 not co-transfected), < 40%:
B1
B2
B3
